This is an account of results in the supplement of paper PMC9732359.

± gives the uncertainty stated by the source.

This series can be described thus: protein stability index of a GFP-peptide fusion (yeast GPS) (PSI 1-4); higher = more stable; sorted into four equal gates, so the index is relative within each strain. A digest of the protocol:
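Plasmids isolated from each sorting gate were PCR-amplified and Illumina-sequenced, and barcodes assigned the reads to strains. The gates, four of equal size, were set by GFP/Cherry fluorescence ratio on mid-log cultures in leucine-free medium. These cultures were yeast carrying a pooled library of tiled 17-residue yeast protein peptides fused downstream of GFP on a plasmid that also expresses Cherry. The protein stability index is the sum of every gate's read frequency times its gate number.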

NSNGIAMASLYLTGGQQ [SMD1] had a protein stability index (doa10∆) of 2.44 ± 0.073, a protein stability index (pdr5∆) of 2.66 ± 0.06, a protein stability index (san1∆) of 2.63 ± 0.063 and a protein stability index (ubr1∆) of 2.59 ± 0.059.
The like results for VLDHQRAIPFRRFNSSI [RPL17A] were, in that order, 2.69 ± 0.095, 2.39 ± 0.14, 1.67 ± 0.15 and 1.4 ± 0.13.
The like results for LFGNKPTTTTGGLFGNS [YGR119C/NUP57] were, in that order, 2.94 ± 0.1, 2.79 ± 0.13, 2.85 ± 0.18 and 3.19 ± 0.055.
The like results for TPSSNSNSSELEPDYQA [MED1] were, in that order, 2.74 ± 0.13, 2.96 ± 0.16, 3.35 ± 0.055 and 3.43 ± 0.1.
For the sequence SQSACREMALCRELHNK [SSN3], the protein stability index stood at 2.42 ± 0.089 (doa10∆), 2.38 ± 0.073 (pdr5∆), 2.55 ± 0.11 (san1∆) and 2.8 ± 0.067 (ubr1∆).
For FKTYRNETIIDNFSPHQ [SMC3], the protein stability index was found to be 1.97 ± 0.17 (doa10∆), 1.42 ± 0.18 (pdr5∆) and 2.76 ± 0.21 (san1∆).
With QSTPVLLNHGERAELET [RPN1], the protein stability index by setting is: (doa10∆) 3.03 ± 0.13; (pdr5∆) 2.31 ± 0.12; (san1∆) 2.02 ± 0.16; (ubr1∆) 2.66 ± 0.078.
The corresponding values for MSASNANDFQLTIVTCK [SRB8] are 2.33 ± 0.044, 2.41 ± 0.037, 2.42 ± 0.043 and 2.03 ± 0.031.
The corresponding values for NKTNNEDLFDDYPSTSL [NUT1] are 2.22 ± 0.078, 3.09 ± 0.054, 2.85 ± 0.12 and 1.79 ± 0.061.
On to MGKKTFREWQYFKLSIT [POP8], for which the protein stability index (doa10∆) is 1.5 ± 0.046, the protein stability index (pdr5∆) came out at 1.76 ± 0.045, the protein stability index (san1∆) was determined as 1.47 ± 0.099 and the protein stability index (ubr1∆) is 1.71 ± 0.042.
As to IASLERELILAKKQNYK [YCG1], the protein stability index (doa10∆) worked out at 2.6 ± 0.07, the protein stability index (pdr5∆) was found to be 3.07 ± 0.06, the protein stability index (san1∆) came out at 2.14 ± 0.084 and the protein stability index (ubr1∆) stood at 2.42 ± 0.041.
Consider SQVVETHKVTDIYSHEY [YMR129W/POM152], for which the protein stability index runs as follows: (doa10∆) 2.75 ± 0.083; (pdr5∆) 2.77 ± 0.089; (san1∆) 2.68 ± 0.073; (ubr1∆) 2.83 ± 0.15.
The like results for TKTTGKCGSVTVRLIPA [RPS2] were, in that order, 1.34 ± 0.11, 1.7 ± 0.082, 1.35 ± 0.17 and 1.71 ± 0.11.
Regarding QRRYVIKEKVQFNATIN [ITC1], the protein stability index worked out at 1.47 ± 0.04 (doa10∆), 1.65 ± 0.033 (pdr5∆), 1.63 ± 0.069 (san1∆) and 1.68 ± 0.024 (ubr1∆).
Sequence NNLSNQLETLTGSIRHR [CSE2] returned a protein stability index (doa10∆) of 3.06 ± 0.096, a protein stability index (pdr5∆) of 2.98 ± 0.06, a protein stability index (san1∆) of 3.04 ± 0.049 and a protein stability index (ubr1∆) of 3.13 ± 0.059.
PNFLGNCNIKDFKPPYI [SWP82]: the protein stability index is, setting by setting: (doa10∆) 2.62 ± 0.048; (pdr5∆) 2.64 ± 0.041; (san1∆) 2.61 ± 0.054; (ubr1∆) 2.65 ± 0.031.
The like results for KDEPVQNDILQESFINT [FAS2] were, in that order, 2.94 ± 0.089, 3.14 ± 0.12, 3.02 ± 0.052 and 3.21 ± 0.082.
As for LYNDNNKNNNNRHNLLN [SWI1], the protein stability index runs as follows: (doa10∆) 3.08 ± 0.1; (pdr5∆) 1.96 ± 0.062; (san1∆) 1.95 ± 0.065; (ubr1∆) 2.4 ± 0.047.
For GAHLGRFVIWTEAAFTK [RPL4A], the protein stability index worked out at 2.87 ± 0.21 (doa10∆), 3.04 ± 0.2 (pdr5∆) and 2.54 ± 0.25 (ubr1∆).
In turn, GGVPTTSFGQPQSAPNQ [YOR098C/NUP1] displayed a protein stability index (doa10∆) of 2.33 ± 0.071, a protein stability index (pdr5∆) of 1.99 ± 0.085, a protein stability index (san1∆) of 2.36 ± 0.11 and a protein stability index (ubr1∆) of 2.15 ± 0.095.
The corresponding values for NAVISHANAAAVYFADT [SIN4] are 2.03 ± 0.049, 2.29 ± 0.047, 2.06 ± 0.051 and 2.3 ± 0.034.
Take MSAKAQNPMRDLKIEKL [RPL11A]: the protein stability index reads like this: (doa10∆) 3.39 ± 0.16; (pdr5∆) 3.26 ± 0.11; (san1∆) 3.46 ± 0.11; (ubr1∆) 3.61 ± 0.24.
Turning to PFLHLRKKTPAGDWKYD [FAS2], the protein stability index reads like this: (doa10∆) 3.2 ± 0.29; (pdr5∆) 3.32 ± 0.2; (san1∆) 2.54 ± 0.24; (ubr1∆) 3.08 ± 0.21.
The corresponding values for GVQTAYIDYSSKRYIPS [RRP40] are 2.43 ± 0.067, 2.61 ± 0.057, 2.48 ± 0.1 and 2.33 ± 0.068.
